The assay has as its target DDAGNRQP-fused pVIII protein (phage fd (fd-tet)) (UniProt P69539). Description: tricine-SDS-PAGE.

Consider “DDAGNRQP-fused pVIII protein (from UniProt P69539 24-73)”, for which the stoichiometry N was determined as 2.

The values are drawn from paper PMC4210868.
